Laboratory results: PMC3531806

Target: T1, H1N1 WSN NP protein (nucleoprotein of influenza A/WSN/1933), wild type (influenza A virus A/WSN/1933 (H1N1)), P15682
T1 chain: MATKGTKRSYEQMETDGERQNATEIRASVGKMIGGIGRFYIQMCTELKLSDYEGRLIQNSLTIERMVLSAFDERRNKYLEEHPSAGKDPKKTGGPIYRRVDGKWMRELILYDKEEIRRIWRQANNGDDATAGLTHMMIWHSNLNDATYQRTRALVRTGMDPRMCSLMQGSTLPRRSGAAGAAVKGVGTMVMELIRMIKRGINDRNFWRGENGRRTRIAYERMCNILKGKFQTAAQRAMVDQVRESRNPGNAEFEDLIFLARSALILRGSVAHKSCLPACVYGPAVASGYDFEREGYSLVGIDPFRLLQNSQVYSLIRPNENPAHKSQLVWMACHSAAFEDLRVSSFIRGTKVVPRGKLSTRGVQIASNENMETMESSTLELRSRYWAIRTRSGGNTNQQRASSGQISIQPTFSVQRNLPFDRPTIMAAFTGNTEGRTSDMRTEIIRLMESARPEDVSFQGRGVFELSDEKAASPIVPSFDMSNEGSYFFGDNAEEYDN
Assay: SEC
Settings: remark: other sources report otherwise

B1: H1N1 WSN NP protein (nucleoprotein of influenza A/WSN/1933), wild type, P15682 1-498 (natural protein)
chain: T1 chain
B1 showed a half-life (t1/2) of the dissociation of trimers to monomers of 10 h and a stoichiometry N of 3.
